This note sets out measurements from the DeepSol protein solubility set.

This series can be described thus: soluble on expression in E. coli; label from the status in PepcDB or PDB records.
In the case of “MGSDKIHHHHHHMSRFAACFEDLPDPRGRNARHPLTSILFIAVAAIVCGAESCTDMADFGVAKKKWLKTIVPLPYGIPSHDTFSTVFRHLDPDAFDAAFRRLTASFAQGLEGVVAIDGKAVRGAYRRAAKATPLHFVNVWAAGPGLVIGQKLAPGRNEVQGALDALALLALEGSIVTADALHCRPDTARAILAAGGDYALALKANQPGLLAQALARIEDADHVESIQIAAETAHDRTETRRASVVAVDDINFPGLQAIGCVETTSRHTNGHLTSHVRYFLLSTTMSPSALIEVVRTHWQIENKLHWVLDVHFREDAARNRKDNGPQNIAFLRKIALNLLRSHPDKASIRRKIKKAGWDDQFLTSLIAHMR”, the “soluble on expression in E. coli” value is “not soluble”.
To “DTRNEAEACLRYVKTKFARTMLGILKATQDNPKETWRLVPLQDFTAESDIDWTQPVAEIDRQLYRKYGLNESEIAFVEEKVRPMD” belongs “not soluble”.
In the case of “MSTQPDTSLRATKRLKTRISVEDAATALVLRDGFDNVTVEDICAAAEISKRTFFNYFDSKENAVFGDIQVDILPQLREEFLSHPHEDLPEAVIRLHMNLVFSGKDFDPHTRGEIIRRRKTIRHNNPERSFNYNALYHKVFINFKTLVNEYFEHFPEQRRLGGDVDVEATAVVLSSSYAIRFGFTLWADSPSASFSTLEESCLEALVHLRTINKGL” it was “not soluble”; in that of “MSLNPKIITQYKNKKVDAASTMTDISGKNILMGFWHNWPSESGQGYQQGMFAEMPLTGIDKAYNVIAVAFMKGAGIPTFKPYNLSDEAFRAQVAELNAQGRAVLISLGGADAHIELHAGQEEALAYEIIRLVEVYGFDGLDIDLEQAAITFADNRTVLPAALRMVREHYETEGKHFIISMAPEFPYLRSAARDTPLLKEITTYFPFLKEAVAFLTSFRSGGAYLAYIEALEDLYDFIAPQYYNQGGDGIWVDELNLWVTQNNDAHKKEFLYYLTDSLIHGTRGFTKIPANRLAIGLPTNNDAAATGYVINPDDVKYALDTLQADGNPIRGLMTWSVNWDNGTPKVGEAYKWEFAKRYGYLTGGEGHHHHHH”, “soluble”; in that of “MKRLRCIREIERQRGTRVIAMIHRQEALTFLGIPIYKFITIEDSEEILRAIRLTPEDMPIDLIIHTPGGLALASEQIALALKEHKAKTTVIIPHYAMSGGSLIALAADEIIMDKNAVMGPVDPQIGQYPAASILEAYYRKGEKVSDETLILVDISKKAIKQMEEFVYELLKDKYGDEKAKEIAKKLTSGTW”, “not soluble”.
To “MGHHHHHHSHMKFRAKIVDGACLNHFTRISNMIAKLAKTCTLRISPDKLNFILCDKLANGGVSMWCELEQENFFNEFQMEGVSAENNEIYLELTSENLSRALKTAQNARALKIKLTNKHFPCLTVSVELLSMSSSSRIVTHDIPIKVIPRKLWKDLQEPVVP” belongs “not soluble”; to “DRHVDTHSEVLIFEVIPADDFLQQQLQITVQDRVWHVKRVRYRKQKPMALEETWMPLALFPDLTWQVMENSKYHFIEEVKKMVIDRSEQEIIPLMPTEEMSRLLNISQTKPILEKVSRGYLVDGRVFEYSRNAFNTDDYK”, “not soluble”; to “MSLPQSKVLTSFGTANRTPRAAETHPLTWRLRDDGQPVWLEEYQTKQGYDAVRKALGQMSPDEIVSTVKDAGLKGRGGAGFPTGVKWGLMPKDESMNIRYLLCNADEMEPNTWKDRLLMEQLPHLLIEGMIISAKALKAYRGYIFLRGEYVDAAINLRRAVEEAKAAGLLGKNILGSGFDFELFVHTGAGRYICGEETALINSLEGRRANPRAKPPFPAVSGVWGKPTCVNNVETLCNVPAIIGNGVAWYHTLALPGSEDHGTKLMGFSGKVNNPGVWELPFGITARELFEGYAGGMRSGYRLKAWQPGGAGTGFLLPEHLDAQMYTAGIGKVGTRMGTGLAMAVDDSISMVSLLRNMEEFFARESCGWCTPCRDGLPWSVKLLRSLERGEGQEGDLATLEQLCNFLGPGKTFCAHAPGAVEPLASAIKYFRSEFEAGIKGSGDNRKSIKGIQPNLLGERWAAALEHHHHHH”, “soluble”.
For the sequence “MVVIIPPKLSVSTLMGVLKGRSAIRLFNKFPHVRKKQWGNSFWARGYFVDTVGVNEEIIRRYVRHQDKQDQEHEAQLSLQMM”, the “soluble on expression in E. coli” value is listed as “soluble”.
